The nature of data set [1]: folding stability dG unfold from chymotrypsin proteolysis; higher = more stable. The gist of the method:
(§1)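 K50 was inferred by Bayesian fitting of sequencing counts obtained after protease digestion of designed mini-proteins. Unfolding free energy was derived by comparison with a sequence-predicted unfolded-state K50 and a shared folded-state K50, for each protease or both combined. The mini-proteins were under 80 residues, had no cysteine, were carried in a PA-tagged cDNA display construct, and were kept only if AlphaFold2 dimer inter-PAE exceeded 15.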

Data set [2] can be described thus: folding stability dG unfold (combined trypsin and chymotrypsin); higher = more stable. The procedure, abridged: as §1
A short description of data set [3]: folding stability dG unfold from trypsin proteolysis; higher = more stable. The gist of the method: as §1

± gives the half width of the 95% confidence interval.

Regarding “SAGGSMVLTLEEESEEGVLRVTELHFYPGEVTVTTRTFEIAPDGSVRSATESTTVIPVPPSALAEASAGGSA [r2_474_JUSTAS]”, the “folding stability dG unfold” value was 2.33 ± 0.038 kcal/mol in data set [1], 1.96 ± 0.1 kcal/mol in data set [2] and 1.37 ± 0.051 kcal/mol in data set [3].
In the same order, the values of “SAGGSMVLVRVERTPDGTLRVTALFFFDGRLLRVERTFRLAPDGRIVDADVSVEELPVPPSEVPVLSAGGSA [r2_474_TrMRF]” are 4.45 ± 0.071 kcal/mol, 4.11 ± 0.099 kcal/mol and 3.39 ± 0.16 kcal/mol.
In the same order, the values of “SAGGSMVTLTTTETSVEGERTVEVSTLGSKTVTTTFEPESDSSTVTTSPVPPVAGPELLALNLLLLSAGGSA [r2_482_JUSTAS]” are -0.102 ± 0.18 kcal/mol, 0.189 ± 0.082 kcal/mol and 0.291 ± 0.079 kcal/mol.
In the case of “SAGGSMVVVPVEVTVPPEELEQYLEDLRAAYEKPGVKVEILPVEREPIRDPAGRVEEVRAKATIKIVPSAGG [r13_707_JUSTAS]”, the “folding stability dG unfold” value in data set [1] was 0.522 ± 0.042 kcal/mol; in data set [2] it was 0.207 ± 0.08 kcal/mol; in data set [3] it was -0.511 ± 0.21 kcal/mol.
In the case of “SAGGSMYLIRITVRNKDGEEVLTIERRVRLEDGKSLEEVAEELRRALESLPNLEVVDVEVVPLEELSAGGSA [r2_192_TrROS_Hall]”, the results for the “folding stability dG unfold” value in data set [1], in data set [2] and in data set [3] were 3.797 ± 0.019 kcal/mol, 3.99 ± 0.058 kcal/mol and 4.3 ± 0.072 kcal/mol, respectively.
With “SAGGSNVVEVEVEELPDGTVVLRVRVLRLLPNGELGGVVERPFVFPRELFENIPLEEIVRRAVEEGSAGGSA [r2_421_TrMRF]”, the “folding stability dG unfold” value in data set [1] is 3.758 ± 0.032 kcal/mol; in data set [2] it was 3.63 ± 0.072 kcal/mol; in data set [3], 3.39 ± 0.081 kcal/mol.
In the same order, the values of “SAGGSPDPNQKPVTVRVEIMIMRPDPNGKWEMRPIEFEMTIGDVEEFLEELEKEPGYMIMVDIEIYSAGGSA [r2_270_TrROS]” are 3.97 ± 0.25 kcal/mol, 3.65 ± 0.28 kcal/mol and 2.33 ± 0.13 kcal/mol.
On to “SAGGSPEIPKDYEVIEIDAETLPDGSVLIPIIVRDPIIPYYLKMYYRSIPTRWEPISFELIHPDELSAGGSA [r2_371_TrMRF]”, for which the “folding stability dG unfold” value in data set [1] came out at 1.61 ± 0.085 kcal/mol; in data set [2], 1.45 ± 0.057 kcal/mol; in data set [3] it was 1.25 ± 0.018 kcal/mol.
Take “SAGGSPEQARRWAKYIAETRAGENGWEVEDVEVEQHPGGYVEASIDVQFPDGKKREITITIPPGDPFSAGGS [r8_175_TrROS]”: the “folding stability dG unfold” value was -0.361 ± 0.81 kcal/mol in data set [1], -0.447 ± 0.55 kcal/mol in data set [2] and -0.149 ± 0.54 kcal/mol in data set [3].
Turning to “SAGGSPFKKETFEFENVKVEVYRLPGPYALALLEVEVSGEPVYYVAVFKLGPDNKLEVVSFGPVDLSAGGSA [r2_171_TrMRF]”, the “folding stability dG unfold” value in data set [1] was 2.85 ± 0.031 kcal/mol; in data set [2], 2.78 ± 0.053 kcal/mol; in data set [3], 2.63 ± 0.054 kcal/mol.
For “SAGGSPGIKIEIWFMIMFPVKPDPDNGKPRWYMIMVSPKMWYDPEPGGMQIEIDINIMPLGDPEAFSAGGSA [r2_489_TrROS]”, the “folding stability dG unfold” value was found to be 3.6 ± 0.038 kcal/mol in data set [1], 3.41 ± 0.21 kcal/mol in data set [2] and 3.2 ± 0.16 kcal/mol in data set [3].
For the sequence “SAGGSPIKPITFEFPNIKVTVYRMPNKYIMVHIEFRENGEPYYLMITFKLDPDNKLKATSIGPMPPSAGGSA [r2_171_TrROS]”, the “folding stability dG unfold” value in data set [1] was determined as 4.537 ± 0.037 kcal/mol; in data set [2] it was 4.01 ± 0.093 kcal/mol; in data set [3], 2.69 ± 0.1 kcal/mol.
Consider “SAGGSPMTITMWFPVDSVEQAKDLINPNFPDYDVKVDNIKPENGWVRVKYTWPNGKPQEREIPIKKSAGGSA [r2_201_TrROS]”, for which the “folding stability dG unfold” value was 0.324 ± 0.38 kcal/mol in data set [1], 0.147 ± 0.39 kcal/mol in data set [2] and -0.226 ± 0.33 kcal/mol in data set [3].
Take “SAGGSPNIQVNVERDPKDGYIKFSITVPPGAPNMKIKIAIFENDKIVEKEEITMPPGKTTEYTFKIKSAGGS [r16_412_TrROS]”: the results for the “folding stability dG unfold” value in data set [1], in data set [2] and in data set [3] were 4.13 ± 0.065 kcal/mol, 3.6 ± 0.38 kcal/mol and 3.29 ± 0.16 kcal/mol, respectively.
As to “SAGGSPPDNFKMEPIPLRFPNGWKITVMVMRNPDDGRPYVSVEIEPPNDGKEVKFMMPADDLKDFISAGGSA [r2_366_TrROS]”, the “folding stability dG unfold” value was 1.64 ± 0.23 kcal/mol in data set [1], 1.66 ± 0.19 kcal/mol in data set [2] and 1.5 ± 0.054 kcal/mol in data set [3].
Regarding “SAGGSPPPVEVTPITHINGGEPVPTRVETYPDGTVTVHITLPDGSSGTLPAEELAELLAAPGSLGDFSAGGS [r16_105_JUSTAS]”, the “folding stability dG unfold” value in data set [1] was -0.455 ± 0.033 kcal/mol; in data set [2] it was 0.805 ± 0.045 kcal/mol; in data set [3], 1.53 ± 0.071 kcal/mol.
“SAGGSPRLELTVTIPGLGLPVTVRTESVDPVRGYVTATLDFPVPGYRATLVFDPVTGRVYARVEPASAGGSA [r2_147_TrMRF]”: the “folding stability dG unfold” value in data set [1] stood at 3.13 ± 0.062 kcal/mol; in data set [2] it was 2.85 ± 0.12 kcal/mol; in data set [3], 2.34 ± 0.04 kcal/mol.
For the sequence “SAGGSPSITVSESSDPATGTRTLTITVPSSAPSATLNIVVSGSGPPVSSKTVTVPPGTTVTITYTTTSAGGS [r16_412_JUSTAS]”, the “folding stability dG unfold” value in data set [1] came to 2.84 ± 0.049 kcal/mol; in data set [2], 2.61 ± 0.056 kcal/mol; in data set [3], 2.2 ± 0.06 kcal/mol.
For the sequence “SAGGSPSTARTVELEFNPNEVTLEKIKELLEELGFKGITSITVESTPDSLTITLTDPNGAPSVVRVISAGGS [r8_86_JUSTAS]”, the figures for the “folding stability dG unfold” value in data set [1], in data set [2] and in data set [3] were 2.66 ± 0.075 kcal/mol, 2.43 ± 0.047 kcal/mol and 2.05 ± 0.049 kcal/mol, respectively.
For “SAGGSPTVTFDPETGAVTVTVNGQTQTAYIPPGDKVTLTVTFQSGGSGVPFTLELEVTVTPPKPLKSAGGSA [r2_116_TrMRF]”, the “folding stability dG unfold” value in data set [1] was determined as 2.48 ± 0.061 kcal/mol; in data set [2] it was 2.17 ± 0.12 kcal/mol; in data set [3] it was 1.45 ± 0.074 kcal/mol.
Regarding “SAGGSQKLPPGETIPIRIPGFQIEISPDKTTIHVMWPDPDEAKDFLKNLPFPIKIDKVEVMPPEDFSAGGSA [r2_418_TrROS]”, the “folding stability dG unfold” value stood at 1.01 ± 0.035 kcal/mol in data set [1], 0.85 ± 0.11 kcal/mol in data set [2] and 0.515 ± 0.066 kcal/mol in data set [3].
In the case of “SAGGSRIEEVAREILEKLPLKPGEPVLVEVEVDFPDGLRIRLKVEAYVDPETGEVHLKVEILEIEPVSAGGS [r16_634_TrMRF]”, the “folding stability dG unfold” value in data set [1] came to 2.91 ± 0.064 kcal/mol; in data set [2] it was 3.06 ± 0.069 kcal/mol; in data set [3], 3.24 ± 0.039 kcal/mol.
Consider “SAGGSRRLEFMFYNPEAGFLIKIEVTYDPDDPGYYKIRVEVYPPDGEPIFPVEIYVPPGDDIKIKFPSAGGS [r16_654_TrROS]”, for which the “folding stability dG unfold” value in data set [1] was 4.42 ± 0.13 kcal/mol; in data set [2] it was 4.31 ± 0.29 kcal/mol; in data set [3] it was 3.54 ± 0.35 kcal/mol.
For the sequence “SAGGSRVEVEVEVEGDTLRVRLRVYSEGGPPLLEAEAELPLGPVPPLPPVEVRVDPLEEEYPAKYFSAGGSA [r2_332_TrMRF]”, the “folding stability dG unfold” value in data set [1] came out at 2.28 ± 0.17 kcal/mol; in data set [2], 2.5 ± 0.31 kcal/mol; in data set [3], 2.82 ± 0.14 kcal/mol.
As for “SAGGSSELEEAIEKARAEPGVLVERTVKLPDGRELKVEVDPKTGIVTLTETLPDGSTTTKEETYEPSAGGSA [r2_263_JUSTAS]”, the “folding stability dG unfold” value in data set [1] amounted to 1.26 ± 0.085 kcal/mol; in data set [2] it was 1.11 ± 0.13 kcal/mol; in data set [3] it was 0.512 ± 0.088 kcal/mol.
In the same order, the values of “SAGGSSMPLVKKEVDATRPDGSPLSFEEYLSSLKPNIRSEPIPNGKTVVTAPDPATGSTYTITIEESAGGSA [r2_234_JUSTAS]” are -0.37 ± 0.14 kcal/mol, -0.428 ± 0.079 kcal/mol and -1.31 ± 0.19 kcal/mol.
In the same order, the values of “SAGGSSMTTKTINLSLPNGVEELTITITTPPDGTYNATFYFPKTGKKTTHNFTSEEEIEKFIEELIKESAGG [r13_857_JUSTAS]” are 4.291 ± 0.036 kcal/mol, 4.01 ± 0.089 kcal/mol and 2.97 ± 0.086 kcal/mol.

Values taken from the supplement of paper PMC12764529.
